Measurements from patent US20240376170A1 (BRIGHT PEAK THERAPEUTICS, published 2024).
Blank lines part the entries; values can stand above or below the binder they belong to. Bridges are numbered along the chain shown (N, C = ends). Primed or numbered codes have the meaning given here. [ ]: non-standard residue; d: D form. Ygp = O-(8x polyethylene glycol-amino)-tyrosine (Tyr, amino-capped PEG8); Yn3 = O-(9x polyethylene glycol-azido)-tyrosine (Tyr, azide-capped PEG9); Ygp(3) = O-(PEG8-amino)-tyrosine; Yn3(3) = O-(PEG9-azido)-tyrosine; PEG4′ = 4x polyethylene glycol; hSer = N[C@@H](CCO)C(=O)O; Nle = CCCC[C@H](N)C(=O)O

Tests used:
[1] = target: T1, IL-2 receptor βγ complex on human T cells (human, UniProt P14784 27-551; P31785 23-369); test: cell-based or functional assay
T1 sequence (looked up) 1: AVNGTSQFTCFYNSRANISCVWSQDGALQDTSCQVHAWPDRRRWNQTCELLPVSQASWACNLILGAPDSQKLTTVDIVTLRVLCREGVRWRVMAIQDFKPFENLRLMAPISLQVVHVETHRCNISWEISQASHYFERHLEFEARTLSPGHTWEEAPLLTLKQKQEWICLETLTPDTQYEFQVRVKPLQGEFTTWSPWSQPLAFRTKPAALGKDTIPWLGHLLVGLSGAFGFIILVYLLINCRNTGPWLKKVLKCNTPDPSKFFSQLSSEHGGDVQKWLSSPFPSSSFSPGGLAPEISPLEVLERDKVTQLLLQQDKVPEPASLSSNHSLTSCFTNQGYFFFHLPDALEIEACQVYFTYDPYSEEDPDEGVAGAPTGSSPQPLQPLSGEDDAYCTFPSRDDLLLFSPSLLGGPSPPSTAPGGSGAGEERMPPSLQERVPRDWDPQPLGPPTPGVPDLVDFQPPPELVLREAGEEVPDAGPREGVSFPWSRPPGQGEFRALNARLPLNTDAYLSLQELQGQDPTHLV
T1 sequence (looked up) 2: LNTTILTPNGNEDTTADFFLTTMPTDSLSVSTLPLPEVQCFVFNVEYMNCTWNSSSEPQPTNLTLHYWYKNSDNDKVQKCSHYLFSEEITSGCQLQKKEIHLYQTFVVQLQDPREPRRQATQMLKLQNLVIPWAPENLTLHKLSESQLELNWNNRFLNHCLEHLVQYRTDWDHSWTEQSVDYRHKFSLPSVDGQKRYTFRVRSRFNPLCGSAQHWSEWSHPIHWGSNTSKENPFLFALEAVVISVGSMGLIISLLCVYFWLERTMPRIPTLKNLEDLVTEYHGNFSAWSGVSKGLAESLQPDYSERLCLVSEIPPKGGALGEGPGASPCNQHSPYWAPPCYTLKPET

[2] = target: T2, IL-2Rβγ on HEK-Blue IL-2Rβγ reporter cells (InvivoGen) (UniProt P14784 27-551; P31785 23-369, limits assumed); test: cell-based or functional assay
T2 sequence (looked up) 1: T1 sequence (looked up) 1
T2 sequence (looked up) 2: T1 sequence (looked up) 2

[3] = target: T3, recombinant human IL-2 receptor beta containing a His-tag and Avi-tag (human, UniProt P14784 27-239); test: BLI (Octet R8), receptor on SAX2 sensor
T3 construct: Bought; attached to the SAX2 biosensor; also called CD122; IL-2R β; not shown: His-tag and Avi-tag
T3 sequence (looked up): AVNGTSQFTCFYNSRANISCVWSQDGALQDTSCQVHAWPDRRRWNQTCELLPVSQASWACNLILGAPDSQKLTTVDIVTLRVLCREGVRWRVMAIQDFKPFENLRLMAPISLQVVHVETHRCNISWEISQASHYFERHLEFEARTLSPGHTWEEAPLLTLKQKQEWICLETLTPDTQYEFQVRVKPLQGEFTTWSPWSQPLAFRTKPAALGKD
Procedure: (§1) Bilayer interferometry (BLI) assays were used to measure the binding constants between activatable IL-2 polypeptides (and activated versions thereof) to IL-2 receptor subunits or receptor complexes. BLI assays were conducted on an Octet® R8 instrument. Assay plates were 96 well, polypropylene, F-bottom (chimney well), black microplates (Greiner Bio-one, Cat. No: 655209). The biosensors were Octet® SAX2 (Sartorius, Cat. No: 18-5136). The assay buffer was 1X Kinetic Buffer (Sartorius, Cat. no: 18-5136) or Phosphate Buffered Saline (PBS) that contained 0.02% (v: v) Tween 20 (Polysorbate 20) and 0.1% (w/v) bovine serum albumin (BSA). The sensor was regenerated between measurements in 10 mM glycine pH 2.7 buffer.
(§2) Sensor attached receptors were either recombinant human IL-2 receptor beta containing a His-tag and Avi-tag™ (R&D Systems™) or an Avi-tag™ Fc with human IL-2R beta and IL-2R gamma attached (Acrobiosystems Cat. no: ACRB-ILG-H₈₂F3-25UG). Receptors were reconstituted from lyophilized powder to 500 μg/ml in PBS. Analytes were diluted in Kinetic buffer to 300 nM, then serially diluted to lower concentrations.

[4] = target: T4, Avi-tag Fc with human IL-2R beta and IL-2R gamma attached (Acrobiosystems ACRB-ILG-H82F3-25UG) (human, UniProt P14784 27-239; P31785 23-262); test: BLI (Octet R8), receptor on SAX2 sensor
T4 construct: Bought; attached to the SAX2 biosensor; also called CD122 CD132; IL-2R βγ; not shown: Fc and Avi-tag
T4 sequence (looked up) 1: T3 sequence (looked up)
T4 sequence (looked up) 2: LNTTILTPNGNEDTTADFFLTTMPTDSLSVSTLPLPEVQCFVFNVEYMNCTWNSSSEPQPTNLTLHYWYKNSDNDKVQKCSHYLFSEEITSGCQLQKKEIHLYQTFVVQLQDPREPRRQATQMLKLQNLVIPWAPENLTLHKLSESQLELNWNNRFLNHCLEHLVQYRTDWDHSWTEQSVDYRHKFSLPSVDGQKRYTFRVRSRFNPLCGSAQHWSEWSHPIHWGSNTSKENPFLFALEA
Procedure: as §1, §2

B5: CMP-149 (ligand)
chain: APTSSSTKKTQLQLEHLLKDLQ[Nle]ILNGINNYKNPKLTR[Nle]L[hSer][Yn3(3)]KF[Ygp(3)][Nle]PKKATELKHLQCLEEELKPLEEVL[hSer]LAQSKNFHLRPRDLISNINVIVLELKGSETTF[hSer]CEYADETATIVEFLNRWITFSQSIISTLT
modifications: also: further groups not given here
Average EC50, pSTAT5 Assay (T cells), intact molecule [1]: 46.7 nM

B6: CMP-149, MMP2 cleaved (ligand)
chain: APTSSSTKKTQLQLEHLLKDLQ[Nle]ILNGINNYKNPKLTR[Nle]L[hSer][Yn3(3)]KF[Ygp(3)][Nle]PKKATELKHLQCLEEELKPLEEVL[hSer]LAQSKNFHLRPRDLISNINVIVLELKGSETTF[hSer]CEYADETATIVEFLNRWITFSQSIISTLT
modifications: also: MMP2-cleaved form, remnant not given here, Lys19 side chain attached moiety
Average EC50, pSTAT5 Assay (T cells), MMP2 cleaved molecule [1]: 9.56 nM

B7: CMP-150, MMP2 cleaved (ligand)
chain: APTSSSTKKTQLQLEHLLLDLK[Nle]ILNGINNYKNPKLTR[Nle]L[hSer][Yn3(3)]KF[Ygp(3)][Nle]PKKATELKHLQCLEEELKPLEEVL[hSer]LAQSKNFHLRPRDLISNINVIVLELKGSETTF[hSer]CEYADETATIVEFLNRWITFSQSIISTLT
modifications: not fully specified; also: further groups not given here
Average EC50, pSTAT5 Assay (T cells), MMP2 cleaved molecule [1]: 0.45 nM

B8: CMP-138 (ligand)
chain: [PEG4′]SGGPGPAGMKGLPGS[PEG4′]APTSSSTKKTQLQLEHLLLDLQ[Nle]ILNGIENYKNPKLTR[Nle]L[hSer][Yn3(3)]KF[Ygp(3)][Nle]PKKATELKHLQCLEEELKPLEEVL[hSer]LAQSKNFHLRPRDLISNINVIVLELKGSETTF[hSer]CEYADETATIVEFLNRWITFSQSIISTLT
modifications: bridge (positions not given here); not fully specified (bridges); numbers in words are those of the source; also: Cys58-Cys105 disulfide expected from oxidative folding
Kd [3]: 11.7 nM
koff [3]: 0.0105 s⁻¹
kon [3]: 898000 M⁻¹ s⁻¹
Kd [4]: 12.3 nM
koff [4]: 0.00284 s⁻¹
kon [4]: 232000 M⁻¹ s⁻¹

B10: CMP-146 (ligand)
chain: APTSSSTKKTKLQLEHLLLDLQ[Nle]ILNGINNYKNPKLTR[Nle]L[hSer][Yn3(3)]KF[Ygp(3)][Nle]PKKATELKHLQCLEEELKPLEEVL[hSer]LAQSKNFHLRPRDLISNINVIVLELKGSETTF[hSer]CEYADETATIVEFLNRWITFSQSIISTLT
modifications: also: further groups not given here
Average EC50, pSTAT5 Assay (T cells), intact molecule [1]: 4.29 nM

B11: CMP-150 (ligand)
chain: APTSSSTKKTQLQLEHLLLDLK[Nle]ILNGINNYKNPKLTR[Nle]L[hSer][Yn3(3)]KF[Ygp(3)][Nle]PKKATELKHLQCLEEELKPLEEVL[hSer]LAQSKNFHLRPRDLISNINVIVLELKGSETTF[hSer]CEYADETATIVEFLNRWITFSQSIISTLT
modifications: also: further groups not given here
Average EC50, pSTAT5 Assay (T cells), intact molecule [1]: 6.38 nM

Continued, values first:

Average EC50, pSTAT5 Assay (T cells), MMP2 cleaved molecule [1]: 1.29 nM
B1: CMP-147, MMP2 cleaved (ligand)
chain: APTSSSTKKTQLKLEHLLLDLQ[Nle]ILNGINNYKNPKLTR[Nle]L[hSer][Yn3(3)]KF[Ygp(3)][Nle]PKKATELKHLQCLEEELKPLEEVL[hSer]LAQSKNFHLRPRDLISNINVIVLELKGSETTF[hSer]CEYADETATIVEFLNRWITFSQSIISTLT
modifications: also: MMP2-cleaved form, remnant not given here, Lys13 side chain attached moiety

Average EC50, pSTAT5 Assay (T cells), intact molecule [1]: 3.57 nM
B2: CMP-148 (ligand)
chain: APTSSSTKKTQLQLKHLLLDLQ[Nle]ILNGINNYKNPKLTR[Nle]L[hSer][Yn3(3)]KF[Ygp(3)][Nle]PKKATELKHLQCLEEELKPLEEVL[hSer]LAQSKNFHLRPRDLISNINVIVLELKGSETTF[hSer]CEYADETATIVEFLNRWITFSQSIISTLT
modifications: also: further groups not given here

Average EC50, pSTAT5 Assay (T cells), MMP2 cleaved molecule [1]: 0.92 nM
B3: CMP-146, MMP2 cleaved (ligand)
chain: APTSSSTKKTKLQLEHLLLDLQ[Nle]ILNGINNYKNPKLTR[Nle]L[hSer][Yn3(3)]KF[Ygp(3)][Nle]PKKATELKHLQCLEEELKPLEEVL[hSer]LAQSKNFHLRPRDLISNINVIVLELKGSETTF[hSer]CEYADETATIVEFLNRWITFSQSIISTLT
modifications: also: MMP2-cleaved form, remnant not given here, Lys11 side chain attached moiety

Average EC50, HEK-Blue IL-2R (CD122+, CD132+) Reporter Assay, intact molecule [2]: 1.05 nM
Kd [3]: 59.5 nM
koff [3]: 0.0122 s⁻¹
kon [3]: 206000 M⁻¹ s⁻¹
Kd [4]: 9.19 nM
koff [4]: 0.000786 s⁻¹
kon [4]: 85500 M⁻¹ s⁻¹
B4: CMP-319 (ligand)
chain: RGRRVANLVGAPTSSSTKKTQLQLEHLLLDLQEILNGINNYKNPKLTR[Nle]L[hSer][Yn3]KF[Ygp][Nle]PKKATELKHLQCLEEELKPLEEVL[hSer]LAQSKNFHLRPRDLISNINVIVLELKGSETTF[hSer]CEYADETATIVEFLNRWITFSQSIISTLT
modifications: lactam N-33; ends not checked

Average EC50, pSTAT5 Assay (T cells), MMP2 cleaved molecule [1]: 0.95 nM
B9: CMP-148, MMP2 cleaved (ligand)
chain: APTSSSTKKTQLQLKHLLLDLQ[Nle]ILNGINNYKNPKLTR[Nle]L[hSer][Yn3(3)]KF[Ygp(3)][Nle]PKKATELKHLQCLEEELKPLEEVL[hSer]LAQSKNFHLRPRDLISNINVIVLELKGSETTF[hSer]CEYADETATIVEFLNRWITFSQSIISTLT
modifications: also: MMP2-cleaved form, remnant not given here, Lys15 side chain attached moiety

Average EC50, pSTAT5 Assay (T cells), intact molecule [1]: 3.86 nM
B12: CMP-147 (ligand)
chain: APTSSSTKKTQLKLEHLLLDLQ[Nle]ILNGINNYKNPKLTR[Nle]L[hSer][Yn3(3)]KF[Ygp(3)][Nle]PKKATELKHLQCLEEELKPLEEVL[hSer]LAQSKNFHLRPRDLISNINVIVLELKGSETTF[hSer]CEYADETATIVEFLNRWITFSQSIISTLT
modifications: also: further groups not given here
